Results as given in US20180086832A1 (Johns Hopkins, published 2018).

What was measured:
[1] = target: T1, KRAS(WT)-HLA-A2 (human, biotinylated in the recombinant monomer (site not stated)); assay: flow cytometry, peptide-pulsed T2 cells
T1 construct: Monomer in ELISA and off-rate assays; on pulsed T2 cells in flow cytometry and CDC; also called KRAS(WT)-HLA-A2 monomer; KRAS(WT) peptide-pulsed T2 cells

[2] = target: T2, ELA control peptide on HLA-A2 (human); assay: flow cytometry, peptide-pulsed T2 cells
T2 construct: ELA-pulsed T2 cells; also called negative HLA-A2 control peptide ELA; irrelevant peptide

[3] = target: T1, KRAS(WT)-HLA-A2; assay: off-rate ELISA on monomer-coated strips
[4] = target: T1, KRAS(WT)-HLA-A2; assay: phage ELISA after affinity maturation
[5] = target: T3, KRAS(WT)-HLA-A3 (human, biotinylated in the recombinant monomer (site not stated)); assay: ELISA of purified scFv on monomers, anti-Flag
T3 construct: Monomer in ELISA; also called KRAS(WT)-HLA-A3 monomer; KRAS(WT) control peptide on T2A3 cells

[6] = target: T1, KRAS(WT)-HLA-A2; assay: ELISA on monomers, anti-human IgG
[7] = target: T4, EGFR(WT)-HLA-A3 (human); assay: off-rate ELISA on monomer-coated strips, 22 C
T4 construct: also called EGFR(WT) peptide-pulsed T2A3 cells

[8] = target: T3, KRAS(WT)-HLA-A3; assay: flow cytometry, T2A3 cells pulsed with the KRAS(WT) control peptide

B1: KRAS G12V_F10 AM#1 (scFv)
scFv: DIQMTQSPSSLSASVGDRVTITCRASQDVNTAVAWYQQKPGKAPKLLIYSASFLYSGVPSRFSGSRSGTDFTLTISSLQPEDFATYYCQQYYYYPPTFGQGTKVEIKRTGGGSGGGGSGASEVQLVESGGGLVQPGGSLRLSCAASGFNINSNYIHWVRQAPGKGLEWVAYITPETGYYHYADSVKGRFTISADTSKNTAYLQMNSLRAEDTAVYYCSRNYYSAYAMDVWGQGTLVTVSS
binding result [1]: no binding

B2: KRAS G12V_F10 AM#3 (scFv)
scFv: DIQMSQSPSSLSASVGDRVTITCRTSQDANTAVAWYQQKPGKAPKLLFYSASFLFSGVPSRFSGSRSGTDFTLTISSLQPEDFATYYCQQYYYYPPTFGQGTKVEIKRTGGGSGGGGSGASEVQLVESGGGLVQPGGSLRLSCAASGFNINSNYIHWVRQAPGKGLEWVAYITPETGYYRYADSVKGRFTISADTSKNTAYLQMNSLRAEDTAVYYCSRNYYSAYAMDVWGQGTLVTVSS
binding result [1]: no binding

B3: KRAS G12V_F10 AM#2 (scFv)
scFv: DIQMTQSPSSLSASVGDRVTITCRASQDVNTAVAWYQQKPGKAPKLLIYGASFLYSGVPSRFSGSRSGTDFTLTISSLQPEDFATYYCQQYYYYPPTFGQGTKVEIKRTGGGSGGGGSGASEVQLVESGGGLVQPGGSLRLSCAASGFYINSNYIHWVRQAPGKGLEWVAYITPETGYYHYADSVKGRFTISADTSKNTAYLQMNSLRAEDTAVYYCSRNYYSAYAMDVWGQGTLVTVSS
binding result [1]: no binding

B4: D3E6 phage (scFv)
scFv: DIQMTQSPSSLSASVGDRVTITCRASQDVNTAVAWYQQKPGKAPKLLIYSASFLYSGVPSRFSGSRSGTDFTLTISSLQPEDFATYYCQQYYYYPPTFGQGTKVEIKRTGGGSGGGGSGGGASEVQLVESGGGLVQPGGSLRLSCAASGFNISTSYIHWVRQAPGKGLEWVATIDPNDGYSRYADSVKGRFTISADTSKNTAYLQMNSLRAEDTAVYYCSRTNNTAADAMDVWGQGTLVTVSS
notes: also called EGFR T790M clone 1; not shown: myc tag, TEV cleavage site and full length M13 pIII coat protein
binding result [2]: no binding

B5: purified D10-7 scFv (scFv, not shown: small tags and cut ends)
scFv: DIQMTQSPSSLSASVGDRVTIACRASQDVNTAVAWYQQKPGKAPKLLIYSASFLYSGVPSRFSGSRSGTDFTLTISSLQPEDFATYYCQQYYYYPPTFGQGTKVEIKRTGGGSGGGGSGGGASEVQLVESGGGLVQPGGSLRLSCAASGFHINGSYIHWVRQAPGKGLKWVAYIDPETGYSRYADSVKGRFAISADMSKNTAYLQMNSLRAEDTAVYYCSRDSASDAMDVWGQGTLVTVSS
notes: conjugated to an anti-V5 antibody in the CDC assay
binding result [3]: no binding

B6: clone D10-7 (phage, as tested by ELISA in the affinity maturation) (scFv)
scFv: DIQMTQSPSSLSASVGDRVTIACRASQDVNTAVAWYQQKPGKAPKLLIYSASFLYSGVPSRFSGSRSGTDFTLTISSLQPEDFATYYCQQYYYYPPTFGQGTKVEIKRTGGGSGGGGSGGGASEVQLVESGGGLVQPGGSLRLSCAASGFHINGSYIHWVRQAPGKGLKWVAYIDPETGYSRYADSVKGRFAISADMSKNTAYLQMNSLRAEDTAVYYCSRDSASDAMDVWGQGTLVTVSS
notes: One of eight clones from the error-prone PCR library of D10; not shown: phage display fusion partner used at AxioMx is not described
binding result [4]: no binding

B7: purified D10 scFv (scFv, not shown: small tags and cut ends)
scFv: DIQMTQSPSSLSASVGDRVTITCRASQDVNTAVAWYQQKPGKAPKLLIYSASFLYSGVPSRFSGSRSGTDFTLTISSLQPEDFATYYCQQYYYYPPTFGQGTKVEIKRTGGGSGGGGSGGGASEVQLVESGGGLVQPGGSLRLSCAASGFNINGSYIHWVRQAPGKGLEWVAYIDPETGYSRYADSVKGRFTISADTSKNTAYLQMNSLRAEDTAVYYCSRDSASDAMDVWGQGTLVTVSS
notes: Flag/His form in ELISA, AlphaScreen and off-rate assays; V5/His form in cell staining and, conjugated 2:1 to an anti-V5 mouse antibody, in the CDC assay
binding result [5]: no binding (tested: 1 µg/mL (top of the dilution series))

B8: D10 MANAbody (antibody, V domains shown)
VH: EVQLVESGGGLVQPGGSLRLSCAASGFNINGSYIHWVRQAPGKGLEWVAYIDPETGYSRYADSVKGRFTISADTSKNTAYLQMNSLRAEDTAVYYCSRDSASDAMDVWGQGTLVTVSS
VL: DIQMTQSPSSLSASVGDRVTITCRASQDVNTAVAWYQQKPGKAPKLLIYSASFLYSGVPSRFSGSRSGTDFTLTISSLQPEDFATYYCQQYYYYPPTFGQGTKVEIK
notes: Complete bivalent antibody made in Expi293 cells; also called full-length D10 MANAbody; D10 antibody
binding result [6]: no binding (tested: 1 µg/mL (top of the dilution series))

B9: purified C9 scFv (scFv)
scFv: DIQMTQSPSSLSASVGDRVTITCRASQDVNTAVAWYQQKPGKAPKLLIYSASFLYSGVPSRFSGSRSGTDFTLTISSLQPEDFATYYCQQYYSYPPTFGQGTKVEIKRTGGGSGGGGSGGGASEVQLVESGGGLVQPGGSLRLSCAASGFNITSSYIHWVRQAPGKGLEWVAYISPEDGYARHADSVKGRFTISADTSKNTAYLQMNSLRAEDTAVYYCSRDDTYYYSAMDVWGQGTLVTVSS
notes: not shown: Flag and His tags
koff [7]: 3e-05 s⁻¹

B10: phage clone C9 (scFv, not shown: large carriers)
scFv: DIQMTQSPSSLSASVGDRVTITCRASQDVNTAVAWYQQKPGKAPKLLIYSASFLYSGVPSRFSGSRSGTDFTLTISSLQPEDFATYYCQQYYSYPPTFGQGTKVEIKRTGGGSGGGGSGGGASEVQLVESGGGLVQPGGSLRLSCAASGFNITSSYIHWVRQAPGKGLEWVAYISPEDGYARHADSVKGRFTISADTSKNTAYLQMNSLRAEDTAVYYCSRDDTYYYSAMDVWGQGTLVTVSS
notes: also called C9 phage
binding result [8]: no binding
